This experiment addresses CycN cytochrome c protein (Pseudomonas putida S16) (Pseudomonas putida S16). Nature of the experiment: anaerobic stopped-flow spectrophotometry at 542 nm, 4 °C; NicA2-Flred mixed with excess CycNox; linear fit of first-phase kobs against CycNox concentration, said to report on the bimolecular association of the two proteins.

B1: NicA2 nicotine oxidoreductase (wild-type, Pseudomonas putida S16) (enzyme)
chain: TQKTNRASTVKGGFDYDVVVVGGGFAGATAARECGLQGYRTLLLEARSRLGGRTFTSRFAGQEIEFGGAWVHWLQPHVWAEMQRYGLGVVEDPLTNLDKTLIMYNDGSVESISPDEFGKNIRIAFEKLCHDAWEVFPRPHEPMFTERARELDKSSVLDRIKTLGLSRLQQAQINSYMALYAGETTDKFGLPGVLKLFACGGWNYDAFMDTETHYRIQGGTIGLINAMLTDSGAEVRMSVPVTAVEQVNGGVKIKTDDDEIITAGVVVMTVPLNTYKHIGFTPALSKGKQRFIKEGQLSKGAKLYVHVKQNLGRVFAFADEQQPLNWVQTHDYSDELGTILSITIARKETIDVNDRDAVTREVQKMFPGVEVLGTAAYDWTADPFSLGAWAAYGVGQLSRLKDLQAAEGRILFAGAETSNGWHANIDGAVESGLRAGREVKQLLS
By kon is commonly meant the rate constant with which the complex forms. Lower therefore signals slower complex formation. As for B1, the kon stood at 1.3e+06 M⁻¹ s⁻¹.

The values above are taken from US20230212533A1, “PRODUCTS AND METHODS FOR THE TREATMENT OF NICOTINE DEPENDENCE” (THE REGENTS OF THE UNIVERSITY OF MICHIGAN, priority 2020, published 2023).
